# Legend:
# [1] = target: HIV-1 YU2 envelope glycoprotein (Env) (HIV-1 (isolate YU2)) (UniProt P35961)
# [2] = target: HIV-1 BG505 envelope glycoprotein (Env) (HIV-1 (isolate BG505)) (UniProt Q2N0S6)
# [3] = target: HIV-1 HXB2 envelope glycoprotein (Env) (HIV-1 (isolate HXB2)) (UniProt P04578)
# [4] = target: HIV-1 ZM651 envelope glycoprotein (Env) (HIV-1 (isolate ZM651))
# [5] = target: HIV-1 YU2 envelope glycoprotein (Env) (HIV-1 (isolate YU2)) (UniProt P35961); remark: listed apart in the source
# [6] = target: HIV-1 HXB2 envelope glycoprotein (Env) (HIV-1 (isolate HXB2)) (UniProt P04578); remark: listed apart in the source
# [7] = target: HIV-1 HXB2 envelope glycoprotein (Env) (HIV-1 (isolate HXB2)) (UniProt P04578); remark: listed apart in the source
# UniProt P35961, sequence (P35961 32-843): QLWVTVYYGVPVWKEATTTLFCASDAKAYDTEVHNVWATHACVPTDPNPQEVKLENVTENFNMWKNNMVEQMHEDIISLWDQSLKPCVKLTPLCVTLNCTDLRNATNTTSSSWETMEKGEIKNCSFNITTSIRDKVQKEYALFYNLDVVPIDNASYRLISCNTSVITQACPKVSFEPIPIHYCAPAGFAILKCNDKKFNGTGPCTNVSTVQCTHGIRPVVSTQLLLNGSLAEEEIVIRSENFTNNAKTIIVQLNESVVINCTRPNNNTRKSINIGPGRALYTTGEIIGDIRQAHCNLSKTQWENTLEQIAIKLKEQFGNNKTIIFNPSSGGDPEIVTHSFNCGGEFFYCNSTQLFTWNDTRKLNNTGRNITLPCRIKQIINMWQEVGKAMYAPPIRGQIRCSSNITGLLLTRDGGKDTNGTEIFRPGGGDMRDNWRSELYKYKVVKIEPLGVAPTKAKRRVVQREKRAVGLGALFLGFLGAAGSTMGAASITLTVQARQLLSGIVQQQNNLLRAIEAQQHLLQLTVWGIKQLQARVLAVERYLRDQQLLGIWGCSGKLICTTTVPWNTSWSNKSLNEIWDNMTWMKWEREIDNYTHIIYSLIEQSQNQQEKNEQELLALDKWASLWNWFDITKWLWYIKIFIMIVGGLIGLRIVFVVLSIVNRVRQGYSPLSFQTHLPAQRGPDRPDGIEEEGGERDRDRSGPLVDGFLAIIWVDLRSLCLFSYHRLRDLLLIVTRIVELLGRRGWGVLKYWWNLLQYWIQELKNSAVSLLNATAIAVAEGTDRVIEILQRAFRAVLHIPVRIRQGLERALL
substance,measurement,setting,value
eCD4-Ig^mim2 (Fc fusion),IC50 of neutralisation of HIV-1 pseudovirus (TZM-bl assay),[1],0.003 µg/mL
same,IC90 of neutralisation of HIV-1 pseudovirus (TZM-bl assay),[1],0.009 µg/mL
same,IC50 of neutralisation of HIV-1 pseudovirus (TZM-bl assay),[2],0.258 µg/mL
same,IC90 of neutralisation of HIV-1 pseudovirus (TZM-bl assay),[2],0.83 µg/mL
same,IC50 of neutralisation of HIV-1 pseudovirus (TZM-bl assay),[3],0.0008 µg/mL
same,IC90 of neutralisation of HIV-1 pseudovirus (TZM-bl assay),[3],0.002 µg/mL
same,IC50 of neutralisation of HIV-1 pseudovirus (TZM-bl assay),[4],0.468 µg/mL
same,IC90 of neutralisation of HIV-1 pseudovirus (TZM-bl assay),[4],1.65 µg/mL
same,"Env-mediated cell-cell fusion (SRFA), CHO-DSP1 cells with HIV-1 YU2 Env and HeLa.CD4-DSP2 cells with CCR5, fusion level at 260 nM (% of untreated control)",[5],30
same,"Env-mediated cell-cell fusion (SRFA), CHO-DSP1 cells with HIV-1 HXB2 Env and HeLa.CD4-DSP2 cells, fusion level at 1 μg/mL (Fig 1D; concentration dependent over 10-1000 ng/mL, Fig 3A) (% of untreated control)",[6],18
same,"Env-mediated cell-cell fusion (SRFA), fusion level at 260 nM (% of untreated control)",[6],2
VRC03 (antibody),"Env-mediated cell-cell fusion (SRFA), fusion level with 10 μg/mL antibody; the pair said to be blocked is CD4 (on HeLa.CD4-DSP2 cells) with gp120",[7],53 % of control

# From publication PMC6201953
